These results are taken from the supplement of paper PMC9112550, “Optimization of the antimicrobial peptide Bac7 by deep mutational scanning” (BMC Biology, 2022).
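Note: peptides expressed intracellularly from a pBAD plasmid library in pooled LB shake-flask culture, induced with 0.3% L-arabinose, DNA abundance read by NGS, three biological replicates, DESeq2 with apeglm shrinkage.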

This data set has as its system Escherichia coli TOP10. The data set can be described thus: shrunken log2 fold change of peptide-encoding DNA abundance (4.5 h post-induction vs induction); higher = less antimicrobial activity (less host growth inhibition). The settings on record: time post-induction: 4.5 h; library: site-saturation at positions 5, 18, 19, 20.
RRIRARPPRLPRPRPRPALCPRP: the “shrunken log2 fold change” value came out at 0.637. The value for RRIRTRPPRLPRPRPRPHAFPRP was -0.128. For the sequence RRIRFRPPRLPRPRPRPQTNPRP, the “shrunken log2 fold change” value is -0.619.

With RRIRFRPPRLPRPRPRPKWAPRP, the “shrunken log2 fold change” value was -0.075. The value for RRIRQRPPRLPRPRPRPRNDPRP was -0.485; that for RRIRLRPPRLPRPRPRPFPKPRP was -0.103; that for RRIRPRPPRLPRPRPRPFKAPRP was -0.0573. With RRIRKRPPRLPRPRPRPPFMPRP the figure was 0.517; with RRIRQRPPRLPRPRPRPSETPRP, -0.216. Consider RRIRRRPPRLPRPRPRPGMPPRP, for which the “shrunken log2 fold change” value worked out at 0.463. With RRIRRRPPRLPRPRPRPMAEPRP the figure was -0.0431; with RRIRNRPPRLPRPRPRPACMPRP, 0.0165; with RRIRKRPPRLPRPRPRPRSKPRP, 0.254. For RRIRSRPPRLPRPRPRPGAHPRP, the “shrunken log2 fold change” value stood at 0.0286. As to RRIRDRPPRLPRPRPRPLESPRP, the “shrunken log2 fold change” value turned out to be 0.258. With RRIRWRPPRLPRPRPRPRTRPRP the figure was 0.755. The value for RRIRHRPPRLPRPRPRPYVKPRP was -0.509; that for RRIRFRPPRLPRPRPRPVSNPRP was -0.0552; that for RRIRKRPPRLPRPRPRPFHFPRP was -0.0346. With RRIRDRPPRLPRPRPRPRAGPRP the figure was 0.741; with RRIRLRPPRLPRPRPRPRMKPRP, -0.00259; with RRIRIRPPRLPRPRPRPNSWPRP, -0.691. Turning to RRIRTRPPRLPRPRPRPDLGPRP, the “shrunken log2 fold change” value was -0.117. The value for RRIRMRPPRLPRPRPRPWDWPRP was 0.794; that for RRIRKRPPRLPRPRPRPKVTPRP was 0.0261. With RRIRWRPPRLPRPRPRPYAYPRP the figure was 0.0461; with RRIRIRPPRLPRPRPRPNQGPRP, 0.0325; with RRIRWRPPRLPRPRPRPSVNPRP, -0.0581. RRIRVRPPRLPRPRPRPYGSPRP: the “shrunken log2 fold change” value was -0.409. With RRIRSRPPRLPRPRPRPPYGPRP the figure was -0.401; with RRIRDRPPRLPRPRPRPMMRPRP, 0.763. Consider RRIRFRPPRLPRPRPRPSWVPRP, for which the “shrunken log2 fold change” value was -0.393. Turning to RRIRDRPPRLPRPRPRPMKIPRP, the “shrunken log2 fold change” value was -0.0804. The value for RRIRDRPPRLPRPRPRPDEQPRP was 0.0528; that for RRIRLRPPRLPRPRPRPTWRPRP was 0.337. With RRIRDRPPRLPRPRPRPMKDPRP the figure was -0.0395.

In the case of RRIRQRPPRLPRPRPRPLYEPRP, the “shrunken log2 fold change” value is -0.671. With RRIRYRPPRLPRPRPRPFNCPRP the figure was -0.362. With RRIRWRPPRLPRPRPRPVHQPRP the figure was 0.194; with RRIRTRPPRLPRPRPRPFMVPRP, -0.291; with RRIRDRPPRLPRPRPRPMRDPRP, 0.131. With RRIRHRPPRLPRPRPRPYKSPRP the figure was -0.00494; with RRIRYRPPRLPRPRPRPRRFPRP, 0.256; with RRIRTRPPRLPRPRPRPLYGPRP, 0.0411. With RRIRNRPPRLPRPRPRPMKLPRP, the “shrunken log2 fold change” value is -0.282. The value for RRIRARPPRLPRPRPRPIGHPRP was 0.0734; that for RRIRLRPPRLPRPRPRPAASPRP was 0.0421; that for RRIRDRPPRLPRPRPRPYPHPRP was 1.85. The value for RRIRLRPPRLPRPRPRPEAGPRP was 0.375; that for RRIRFRPPRLPRPRPRPAPTPRP was 0.912; that for RRIRPRPPRLPRPRPRPAAFPRP was 0.207. Take RRIRVRPPRLPRPRPRPWLNPRP: the “shrunken log2 fold change” value was -0.106. The value for RRIRARPPRLPRPRPRPGHSPRP was -0.0933; that for RRIRPRPPRLPRPRPRPNNCPRP was -0.0794; that for RRIRMRPPRLPRPRPRPMMPPRP was 0.0687.

RRIRMRPPRLPRPRPRPNSIPRP: the “shrunken log2 fold change” value is -0.283. With RRIRLRPPRLPRPRPRPGLLPRP the figure was 0.0272; with RRIRWRPPRLPRPRPRPRACPRP, 0.468; with RRIRLRPPRLPRPRPRPKVDPRP, -0.00247. With RRIRPRPPRLPRPRPRPMENPRP the figure was 0.127; with RRIRKRPPRLPRPRPRPYKIPRP, -0.305; with RRIRRRPPRLPRPRPRPIDCPRP, 0.00203.
